Measurements as given in publication PMC6851107, “Characterization of the dynamics and the conformational entropy in the binding between TAZ1 and CTAD-HIF-1α” (Scientific Reports, 2019).

Molecular target: T1, transcriptional adapter zinc binding 1 (TAZ1) domain of CREB binding protein (CBP) (mouse (numbering; the same sequence in …, UniProt P45481 340-439)
T1 construct: Isotope-labelled (15N; or 2H, 13C, 15N; or 10% 13C) or unlabelled, depending on the NMR sample
Test: NMR relaxation (15N backbone and 2H methyl side chain) of the complex; 1.3 mM labelled TAZ1 with 1.8 mM unlabelled CTAD-HIF-1α, and 1.3 mM labelled CTAD-HIF-1α with 1.8 mM unlabelled TAZ1; 15 mM HEPES pH 6.8, 50 mM NaCl, 3 mM TCEP, 0.01% NaN3, 7% D2O; 303 K
Conditions: both partners purified

T1 sequence (P45481 340-439): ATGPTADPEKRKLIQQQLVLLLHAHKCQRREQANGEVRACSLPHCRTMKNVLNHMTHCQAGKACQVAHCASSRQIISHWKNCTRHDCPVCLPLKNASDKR

B1: C-terminal transactivation domain of hypoxia inducible factor subunit 1α (CTAD-HIF-1α) (domain or fragment, UniProt Q16665 776-826, looked up)
chain: SDLACRLLGQSMDESGLPQLTSYDCEVNAPIQGSRNLLQGEELLRALDQVN
notes: Unlabelled or 2H, 13C, 15N-labelled, depending on the NMR sample
  binding result: binds
